From patent publication US20200299396A1

Biological target: human TNFR1 on the cellular surface of HeLa, HT1080 and Kym-1 cells (human) (UniProt P19438)
Assay: cell-based or functional assay

Sequence of human TNFR1 on the cellular surface of HeLa, HT1080 and Kym-1 cells (human) (P19438 30-455 limits assumed): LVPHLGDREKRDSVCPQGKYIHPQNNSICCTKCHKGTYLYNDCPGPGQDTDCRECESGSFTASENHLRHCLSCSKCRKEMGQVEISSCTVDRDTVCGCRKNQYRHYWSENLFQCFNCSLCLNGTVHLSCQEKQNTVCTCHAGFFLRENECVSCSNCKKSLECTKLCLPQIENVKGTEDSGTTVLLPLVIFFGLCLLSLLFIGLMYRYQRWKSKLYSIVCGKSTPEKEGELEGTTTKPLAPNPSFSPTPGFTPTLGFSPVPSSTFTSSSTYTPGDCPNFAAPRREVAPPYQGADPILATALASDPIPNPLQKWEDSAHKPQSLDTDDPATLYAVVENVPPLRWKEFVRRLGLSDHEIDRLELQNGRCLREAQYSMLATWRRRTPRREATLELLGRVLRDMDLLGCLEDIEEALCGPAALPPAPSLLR

- IC50, IL-6 [nM] (IL-6 release from HeLa cells, 0.1 nM TNF): 165 nM
- IC50, IL-8 [nM] (IL-8 release from HT1080 cells, 0.1 nM TNF): 84.1 nM
Substance: ATROSAB (antibody)
- IC50, Cell death induction [nM] (Kym-1 cells, TNF-induced): 64.4 nM
